Experimental data reported in publication PMC1636354 (Nucleic Acids Research, 2006).

How the values were obtained:
Experiment in all cases: pull-down
[1] = target: T1, human Rad54B protein (untagged, purified) (human, UniProt Q9Y620 1-910)
T1 sequence: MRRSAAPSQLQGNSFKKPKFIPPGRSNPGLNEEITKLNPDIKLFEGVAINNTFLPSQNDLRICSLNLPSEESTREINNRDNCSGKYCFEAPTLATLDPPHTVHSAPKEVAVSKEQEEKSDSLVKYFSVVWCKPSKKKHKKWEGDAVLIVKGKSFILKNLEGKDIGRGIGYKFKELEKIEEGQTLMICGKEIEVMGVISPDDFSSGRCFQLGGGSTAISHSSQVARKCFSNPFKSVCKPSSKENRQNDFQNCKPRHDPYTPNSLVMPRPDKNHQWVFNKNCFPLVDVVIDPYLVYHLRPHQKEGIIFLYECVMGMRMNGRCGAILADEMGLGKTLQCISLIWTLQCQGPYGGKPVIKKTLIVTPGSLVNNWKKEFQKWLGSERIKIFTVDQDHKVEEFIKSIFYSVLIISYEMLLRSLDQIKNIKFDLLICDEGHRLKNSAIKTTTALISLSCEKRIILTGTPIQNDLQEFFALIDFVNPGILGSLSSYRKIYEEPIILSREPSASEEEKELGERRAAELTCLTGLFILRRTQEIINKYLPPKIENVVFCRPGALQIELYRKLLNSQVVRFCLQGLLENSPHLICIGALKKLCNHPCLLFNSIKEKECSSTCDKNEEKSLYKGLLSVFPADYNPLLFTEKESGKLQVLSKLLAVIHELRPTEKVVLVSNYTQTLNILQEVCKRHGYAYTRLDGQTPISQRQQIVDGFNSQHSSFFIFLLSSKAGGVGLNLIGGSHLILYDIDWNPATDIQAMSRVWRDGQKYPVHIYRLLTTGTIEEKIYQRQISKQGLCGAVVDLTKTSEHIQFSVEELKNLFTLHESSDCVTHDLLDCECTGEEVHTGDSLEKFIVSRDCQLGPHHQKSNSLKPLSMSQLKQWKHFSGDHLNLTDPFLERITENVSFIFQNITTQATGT

pull-down = target: the molecule itself
Dmc1 = target: T2, Dmc1 (human, UniProt Q14565 1-340)
T2 sequence: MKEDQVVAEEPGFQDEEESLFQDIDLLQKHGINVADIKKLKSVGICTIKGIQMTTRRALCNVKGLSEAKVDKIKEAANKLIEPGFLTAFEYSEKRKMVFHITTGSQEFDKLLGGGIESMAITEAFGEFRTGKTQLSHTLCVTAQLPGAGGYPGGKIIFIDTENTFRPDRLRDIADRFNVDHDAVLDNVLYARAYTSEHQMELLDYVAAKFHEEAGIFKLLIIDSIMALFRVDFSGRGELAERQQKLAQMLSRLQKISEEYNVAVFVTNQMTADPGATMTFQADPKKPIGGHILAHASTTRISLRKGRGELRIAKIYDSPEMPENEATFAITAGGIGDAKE

| Binder | binding result [1] | binding result (pull-down) | binding result (Dmc1) |
| --- | --- | --- | --- |
| Dmc1 mutant lacking 81 amino acid residues from the N-terminus (Dmc1 82-340) (domain or fragment) EPGFLTAFEYSEKRKMVFHITTGSQEFDKLLGGGIESMAITEAFGEFRTGKTQLSHTLCVTAQLPGAGGYPGGKIIFIDTENTFRPDRLRDIADRFNVDHDAVLDNVLYARAYTSEHQMELLDYVAAKFHEEAGIFKLLIIDSIMALFRVDFSGRGELAERQQKLAQMLSRLQKISEEYNVAVFVTNQMTADPGATMTFQADPKKPIGGHILAHASTTRISLRKGRGELRIAKIYDSPEMPENEATFAITAGGIGDAKE | binds | binds | – |
| human Dmc1 protein (purified) (natural protein) MKEDQVVAEEPGFQDEEESLFQDIDLLQKHGINVADIKKLKSVGICTIKGIQMTTRRALCNVKGLSEAKVDKIKEAANKLIEPGFLTAFEYSEKRKMVFHITTGSQEFDKLLGGGIESMAITEAFGEFRTGKTQLSHTLCVTAQLPGAGGYPGGKIIFIDTENTFRPDRLRDIADRFNVDHDAVLDNVLYARAYTSEHQMELLDYVAAKFHEEAGIFKLLIIDSIMALFRVDFSGRGELAERQQKLAQMLSRLQKISEEYNVAVFVTNQMTADPGATMTFQADPKKPIGGHILAHASTTRISLRKGRGELRIAKIYDSPEMPENEATFAITAGGIGDAKE | binds | binds | – |
| SAT-120 (ssDNA) DNA: ATTTCTTCATTTCATGCTAGACAGAAGAATTCTCAGTAACTTCTTTGTGCTGTGTGTATTCAACTCACAGAGTGGAACGTCCCTTTGCACAGAGCAGATTTGAAACACTCTTTTTGTAGT | – | – | binds |
| human Rad51 protein (natural protein) MAMQMQLEANADTSVEEESFGPQPISRLEQCGINANDVKKLEEAGFHTVEAVAYAPKKELINIKGISEAKADKILAEAAKLVPMGFTTATEFHQRRSEIIQITTGSKELDKLLQGGIETGSITEMFGEFRTGKTQICHTLAVTCQLPIDRGGGEGKAMYIDTEGTFRPERLLAVAERYGLSGSDVLDNVAYARAFNTDHQTQLLYQASAMMVESRYALLIVDSATALYRTDYSGRGELSARQMHLARFLRMLLRLADEFGVAVVITNQVVAQVDGAAMFAADPKKPIGGNIIAHASTTRLYLRKGRGETRICKIYDSPCLPEAEAMFAINADGVGDAKD | binds | – | – |
